Experimental data reported in the supplement of paper PMC9170038.

Test system: MS2 coat protein
Experiment: apparent KD of MS2 coat protein; designed switch direction (-1 OFF switch, 1 ON switch): -1; higher = weaker reporter binding
Method in brief: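 An oligonucleotide input, 200 uM small-molecule ligand, or no input was present during titration of SNAP-549-labelled MS2 coat protein, which was doubled from 0.7 or 1.5 nM to 3 µM. Designed RNA switches had been transcribed on Illumina chips by stalled E. coli RNA polymerase. Apparent KD per design is the median over clusters of curves fitted to normalised cluster fluorescence.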

[1] = Eterna round: R95, input ligand: FMN 200 uM
[2] = Eterna round: R95, input ligand: microRNA oligo, concentration not stated
[3] = Eterna round: R95, input ligand: none
[4] = input ligand: microRNA oligo, concentration not stated

| Sequence | apparent KD of MS2 coat protein [1] [nM] | apparent KD of MS2 coat protein [2] [nM] | apparent KD of MS2 coat protein [3] [nM] | apparent KD of MS2 coat protein (input ligand: FMN 200 uM) [nM] | apparent KD of MS2 coat protein [4] [nM] | apparent KD of MS2 coat protein (input ligand: none) [nM] |
| --- | --- | --- | --- | --- | --- | --- |
| AAGAAACGAGGAUAUACAGUUGAGUGAGGGAGGGUAGUGUUACAUGAGGAUCACCCAUGUAGAAGGCGUGAGAG [JR_Exclu2_Sub090] (puzzle: Exclusion 2) | 24.8 | 19.3 | 25 | – | – | – |
| CACCGUUAACUAGGAUAUCGUACAUGAGGAUCACCCAUGUAAUAAAUGAGAAUUUCGGAUGUAUGCGAGAAGGAGUAAAUCGGC [Ostricism 46 - Jieux - Exclusion NG 2] (Eterna round: R96, puzzle: Exclusion NG 2) | – | – | – | 40.8 | 27.6 | 37.3 |
| GGUGGACAUGAGGAUCACCCAUGUGAGGAUAUCGGCUGGCUAGCGGCGGACGGCUUCUCGAGAAGGCGCAUUGU [Exclusion 1 V83] (puzzle: Exclusion 1) | – | 46.3 | – | – | – | – |
| AAUUAUUAUUGAGGAUAUGGUAGUGAAACACUACCAGAAGGCGGUAUAAACAUGAGGAUCACCCAUGUGAGCCUGAUGCUUAUG [Ex NG1 #45] (Eterna round: R96, puzzle: Exclusion NG 1) | – | – | – | – | 18.6 | – |
| GGAUGUUAGGAGGAUAUCUGACGUCGAAAAGAAGGAGAAGGCCUGACAUGAGGAUCACCCAUGUGGUCAAAAGA [Eresinbi] (puzzle: Exclusion 6) | 1200 | 110 | 97.8 | – | – | – |
| AUAAAACGUGUAGGAUAUGCGUGGCGAAGCUAUGCAGAAGGACAUGAGGAUCACCCAUGUUCAAGCGUCUGCGUACAGAUGCUA [JL eng1 1.35 mod 6] (Eterna round: R96, puzzle: Exclusion NG 1) | – | – | – | 16.9 | 14.1 | 14.5 |
| UGUUGUUACGCAGGAUAUGUAUGAGGAUCACCCAUAAGAGUAUAUUUACCAUGAGGAUCACCCAUGUAGAAGGGCGGGUUAACA [pwkr exNG2 2xF5 1xFMN.10] (Eterna round: R96, puzzle: Exclusion NG 2) | – | – | – | 224 | 109 | 144 |
| AAAUCGGAGGAGGAUAUUGUACAGGAAACGGUGCGAGAAGGUUUCACAUGAGGAUCACCCAUGUCAAAUAGCGA [EX6 #57] (Eterna round: R97, puzzle: Exclusion 6) | – | – | – | 21.3 | – | 21.2 |
| GGUCAAGGACAGAUCCGCGCUGCCCUUGACCGCUCAUUUACAUGAGGAUCACCCAUGUUUUUUGCUUGUCUUGUUAC [Erbete] (puzzle: Sensor v3, turn-off variant 2) | 16.2 | 94 | 18.1 | – | – | – |
| UUUUUGUCAGGAUAUGAUUAGAUCUACUUCGGUAGAUCUAAUCAGAAGGGACAUGAGGAUCACCCAUGUAGUUU [Mod of Brourd - Jieux - Exclusion 4] (Eterna round: R97, puzzle: Exclusion 4) | – | – | – | 311 | – | 55.8 |
| GUGUACGGAGGAUAUAUGUGGCGAGCAUACGCUCGAGCUUCACAUGAGGAUCACCCAUGUAGAAGGCUGUGCAC [JL-ex2-2.12 Brourd mod] (puzzle: Exclusion 2) | – | 17.9 | – | – | – | – |
| GUUAUGUAAGGAUAUAUGAGUCACGGUGAUACACCGUGAAGAUAGAAGGUACAUGAGGAUCACCCAUGUAAGGC [Mod of Anonveat 10 - Jieux - Exclusion 4] (Eterna round: R97, puzzle: Exclusion 4) | – | – | – | 32.2 | – | 25.4 |
| UUUUAACAUGAGGAUCACCCAUGUGAGGAUAUCGAAAUUUAUAUUAAUAUUAUUUAUACGAGAAGGCACAUUUU [JMF 46] (puzzle: Exclusion 1) | – | 64.9 | – | – | – | – |
| UAUUAAACAUAGGAUAUCGAAUAAAUCAUUUAACGAGAAGGAUGAACAUGAGGAUCACCCAUGUGGUAUCAUGG [Mat - Exclusion 6 - JL Mod - D14] (puzzle: Exclusion 6) | – | 242 | – | – | – | – |
| AUAACAUGCUGGUGAUCAUACAUGAGGAUCACCCAUGUAACAAGCUUUUUGCUCGUCUUAUAAUUUAAGAUCACCAG [Stov1/7-A2] (Eterna round: R97, puzzle: Sensor, turn-off variant 1) | – | – | – | 17.4 | – | 18.1 |
| UGUUGUCGCGUAGGAUAUGGCCAACAGGCCCUAGGAUAUCGGAAACGAGAAGGAGCGCCAACAGGCGAGAAGGACGGGACAACU [pwkr exNG2 2xF7 2xFMN.20] (Eterna round: R96, puzzle: Exclusion NG 2) | – | – | – | 33 | 52.7 | 10.7 |
| CCGCCACAUGAGGAUCACCCAUGUCAGGAUAUCUAUCAUAGCAUCGAAAGAUGCGGGUAGAGAAGGGACUAUCC [ChP Ext 10-04-2015 #6] (puzzle: Exclusion 1) | – | 28.1 | – | – | – | – |
| AUGAUAUAACAGGAUAUUUGGCGCGGAUGCAGAGAAGAAGGGUUGACAUGAGGAUCACCCAUGUGAUCCUUCAA [Eternabot (L1) Solution 18] (Eterna round: R97, puzzle: Exclusion 6) | – | – | – | 20.1 | – | 14.3 |

| Sequence | apparent KD of MS2 coat protein [1] [nM] | apparent KD of MS2 coat protein [2] [nM] | apparent KD of MS2 coat protein [3] [nM] | apparent KD of MS2 coat protein (input ligand: FMN 200 uM) [nM] | apparent KD of MS2 coat protein [4] [nM] | apparent KD of MS2 coat protein (input ligand: none) [nM] |
| --- | --- | --- | --- | --- | --- | --- |
| GUGUAGGUAGGAUAUACAUGAGGAUCACCCAUGUGAAUAAGAUAGAAUAAGAUAAAGUGUAGAAGGGCUAGUGU [Excluse me!!! 13 - Jieux - Exclusion 3] (puzzle: Exclusion 3) | – | 34.5 | – | – | – | – |
| GAGUUAGCGUGAGGAAUAUACAUGAGGAUCACCCAUGUUAGCAAAUAUAUUGCUCGUCUUAUAACAACAAUUAACUC [Alarm 9 - Jieux - Sensor, turn-off variant 1] (Eterna round: R97, puzzle: Sensor, turn-off variant 1) | – | – | – | 13.6 | – | 14.3 |
| CUCAUGUGAGGAUAUGUGAUCAACCUUCUGUAUAGAUGAUUACAGAAGGCACAUGAGGAUCACCCAUGUAGAUC [Ex4 - 3 - 22] (puzzle: Exclusion 4) | – | 91.6 | – | – | – | – |
| CUUUUGUGAGGAUAUUAGUUGUAAAUAAAUAAAAUUACUACUGAGAAGGCACAUGAGGAUCACCCAUGUUCCUC [salish99_ex4_r3_049] (puzzle: Exclusion 4) | – | 33.2 | – | – | – | – |
| UAGUGACAUGAGGAUCACCCAUGUGAGGAUAUAGUGAGAGAAAAAAGGAGAGAGAGGACUAGAAGGCACAGUGA [JR_Exclu1_Sub032] (puzzle: Exclusion 1) | 76.6 | 52.4 | 92.7 | – | – | – |
| GCCGGAGCAGGAUAUCUAAUAUAUCACAUGAGGAUCACCCAUGUCCAGCGAAAGCUGGAGGGAGAAGGGCUCUGGC [Fiskers Ex 5 - 22] (puzzle: Exclusion 5) | 59.7 | 133 | 132 | – | – | – |
| AAUCGGUGAGGAUAUCUAUUGCGGGAGGAAAUUCGCGAAACGGAGAAGGCACAUGAGGAUCACCCAUGUGAAUC [EX4 C.18] (Eterna round: R97, puzzle: Exclusion 4) | – | – | – | 25.7 | – | 18.8 |
| ACAUGAGGAUCACCCAUGUGCACGUAAUGGCUCAUGUAGAGUGAGGAUAUGCGUGACGAACGAGCGCAGAAGGCACAAGACUGG [Deportation 16 - Jieux - Exclusion NG 3] (Eterna round: R96, puzzle: Exclusion NG 3) | – | – | – | 131 | 57.8 | 77.5 |
| UGUGUGAGACAGGAUAUGCCGGAUGUAUUACUGGUAGAAGGGUCUACAUGAGGAUCACCCAUGUGGCCGGCCGG [Ex6 #83] (Eterna round: R97, puzzle: Exclusion 6) | – | – | – | 31.3 | – | 21.1 |
| AGAUCUAGGACAGGAUAUACAGAUGGCUUCAUCGAAGAUGAAGCCAUCACAUGAGGAUCACCCAUGUAGAAGGGUCCUAGAUCA [Omei Exc(NG) 2Av4] (Eterna round: R96, puzzle: Exclusion NG 2) | – | – | – | 19.2 | 9.47 | 13.2 |
| GCGCACCUACCAAAAGGUAGGCCGACAUGAGGAUCACCCAUGUAGGAUAUCGAUUGCUUUGCAGUCGAGAAGGACAUGAUGCGC [JL ENG3 3.80 Mod 9] (Eterna round: R96, puzzle: Exclusion NG 3) | – | – | – | 35.8 | 11.6 | 19 |
| GGUGCCCGACAAGGAUAUAAGAUACAGAAAACCUUAGAAGGUGUCACAUGAGGAUCACCCAUGUGGUCCGGCACCAAUAACUCC [Inedraor] (Eterna round: R96, puzzle: Exclusion NG 1) | – | – | – | 58.9 | 18.1 | 41.9 |
| GAGACACAUGAGGAUCACCCAUGUGAGGAUAUCCGAAGGACCAAAUUAAGAAUUAAAGGGAGAAGGCACAUAAA [Exclusion 1 V5] (puzzle: Exclusion 1) | – | 27.2 | – | – | – | – |
| CCGGGCCCGGGAGGAUAUACAUGAGGAUCACCCAUGUGGGCCCGGGCCCGCGGGCCCGGGCCCGUGUAGAAGGCCCGGGCCCGG [-64.8, -63.2 kcal, A 14%] (Eterna round: R96, puzzle: Exclusion NG 2) | – | – | – | 27.2 | 5.13 | 19.9 |
| CGGUGUAACAGAGGAUAUGAGCGCAACUGACGAUCAGAAGGCUGACAUGAGGAUCACCCAUGUGAUUUCUCAAUAUUAUACAUC [Prohibition 89 - Jieux - Exclusion NG 1] (Eterna round: R96, puzzle: Exclusion NG 1) | – | – | – | 34.2 | 324 | 153 |
| UAAAAGUCAGGAUAUACAUGAGGAUCACCCAUGUAAAAUUUUAAUUUAAUUUUAAGGUGUAGAAGGGACAAUUU [Ex3 #1] (Eterna round: R97, puzzle: Exclusion 3) | – | – | – | 32.5 | – | 34.9 |
| AGCUGGUCAGGAUAUUUGGAGGGACUCCAAUGGUCCACGACGGAGAAGGGACAUGAGGAUCACCCAUGUGGUCG [Eternabot (L2) Solution 13] (Eterna round: R97, puzzle: Exclusion 4) | – | – | – | 69.3 | – | 115 |
